The results in this text go back to US20230002466A1 (ELPIS BIOPHARMACEUTICALS, published 2023).

For experiment [1], the target named is T1, human IL2Rβ (human, UniProt P14784 27-239).
T1 construct: also called IL2β; CD122
T1 sequence (looked up): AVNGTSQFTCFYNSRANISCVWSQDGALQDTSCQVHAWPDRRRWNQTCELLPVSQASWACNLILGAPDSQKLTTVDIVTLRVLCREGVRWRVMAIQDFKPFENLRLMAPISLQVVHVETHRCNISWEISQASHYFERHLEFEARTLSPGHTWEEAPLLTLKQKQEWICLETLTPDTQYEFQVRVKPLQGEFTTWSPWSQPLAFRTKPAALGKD
As to the kind of experiment: SPR, single concentration.

The target in experiment [2] is T2, human IL2Rβ Fc fusion protein (human, UniProt P14784 27-239).
T2 construct: also called Recombinant Fc-tagged human IL2Rβ; not shown: Fc
T2 sequence (looked up): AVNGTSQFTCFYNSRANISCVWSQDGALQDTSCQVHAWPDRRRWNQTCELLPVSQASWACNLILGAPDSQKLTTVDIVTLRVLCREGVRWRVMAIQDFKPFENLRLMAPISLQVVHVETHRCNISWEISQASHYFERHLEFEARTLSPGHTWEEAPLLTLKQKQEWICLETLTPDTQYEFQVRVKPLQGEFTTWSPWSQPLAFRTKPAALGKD
Put plainly: ELISA, Fc-tagged receptor coated, anti-HisTag-HRP. A digest of the protocol: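 IL2 mutants, diluted from 1000 nM to 0 nM, were incubated 2 h at RT on plates coated overnight at 4 °C with Fc-tagged human IL2Rα (or IL2Rβ). Bound protein detected with anti-HisTag-HRP (1:5000, 1 h) and TMB. Absorbance read at 450 nm after acid stop.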

Experiment [3] has as its target T3, human IL2Rα (human, UniProt P01589 22-213, limits assumed).
T3 construct: also called IL2α; CD25
T3 sequence (looked up): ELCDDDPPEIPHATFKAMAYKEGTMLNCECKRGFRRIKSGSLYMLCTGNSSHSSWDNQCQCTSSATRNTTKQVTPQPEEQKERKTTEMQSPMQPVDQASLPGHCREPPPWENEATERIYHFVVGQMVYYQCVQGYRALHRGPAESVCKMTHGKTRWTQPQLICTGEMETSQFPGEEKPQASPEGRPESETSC
Put plainly: SPR (Biacore T200), human IL2Rα, single concentration of the IL2 protein, not printed (Example 13).

The target in experiment [4] is T4, human IL2Rα Fc fusion protein (human, UniProt P01589 22-213, limits assumed).
T4 construct: also called Recombinant Fc-tagged human IL2Rα; not shown: Fc
T4 sequence (looked up): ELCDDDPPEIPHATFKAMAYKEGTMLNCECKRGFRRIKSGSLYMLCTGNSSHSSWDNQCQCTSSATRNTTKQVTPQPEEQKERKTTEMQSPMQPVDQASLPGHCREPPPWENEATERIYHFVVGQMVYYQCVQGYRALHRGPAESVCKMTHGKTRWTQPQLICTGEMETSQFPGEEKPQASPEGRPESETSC
Put plainly: ELISA, single point, Fc-tagged human IL2Rα coated, anti-His-HRP; concentration not printed (Example 14). The protocol: Recombinant Fc-tagged human IL2Rα and IL2Rβ were added in 25 uL of 1×PBS to wells of 384-well plate and incubated overnight at 4° C. to coat the plates. Plates were washed three times with 0.05% Tween20/1×PBS. Plates were blocked with 100 uL of SuperBlock for 1 hr at RT and then washed 3 times with 0.05% Tween20/1×PBS. IL2 mutants were diluted in 0.05% Tween 20/1×PBS from 1000 nM to 0 nM and added to plates for 2 hrs at room temperature. Plates were then washed 6 times with 0.05% Tween20/1×PBS. Anti-HisTag-HRP was diluted 1:5000 in 0.05% Tween20/1×PBS and added to plates for 1 hr at RT. Plates were then washed 6 times with 0.05% Tween 20/1×PBS, and TMB was added to develop blue color. Reactions were stopped with 2N […] and light absorbance at 450 nm was read on a BioTek plate reader.

For experiment [5], the target named is T1, human IL2Rβ. As to the kind of experiment: SPR, IL2Rβ captured on Protein A chip. The protocol: The assay was run with Biacore T200 control software version 2.0. For each cycle, 1 ug/mL of human IL2Rβ was captured for 60 seconds at flow rate of 10 uL/min on flow cell 2 in 1×HBSP buffer on Protein A sensor chip. 100 nM of HIS and Flag tag purified each IL2 mutant was 2-fold serial diluted and injected onto both reference flow cell 1 and IL2Rβ captured flow cell 2 for 150 seconds at flow rate of 30 uL/min followed by washing for 300 seconds. The flow cells were then regenerated with Glycine pH2 for 60 seconds at a flow rate of 30 uL/min. The assay was set up with 8 serial diluted concentration points in 96-well format. The kinetics data was analyzed with Biacore T200 evaluation software 3.0. The specific binding response unit was derived from subtraction of binding to reference flow cell 1 from target flow cell 2 (FIGS. 16A-16F, Table 10).

In experiment [6] the target is T2, human IL2Rβ Fc fusion protein. As to the kind of experiment: ELISA, receptor-Fc coated, anti-Flag HRP. The method, boiled down:
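Plates coated overnight at 4 C with IL2Rα or IL2Rβ Fc fusion at 2 ug/mL, then blocked. Flag-tagged IL2 mutant dilutions were added in duplicate, and binding was detected with anti-Flag HRP (1:5000) and TMB for 5 min. EC50 was fitted from OD450.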

In experiment [7] the target is T1, human IL2Rβ. Put plainly: SPR, receptor captured on Protein A chip, E. coli-produced IL2.
The target in experiment [8] is T1, human IL2Rβ. Put plainly: SPR, receptor captured on Protein A chip, mammalian-produced IL2. The protocol:
The assay was run with Biacore T200 control software version 2.0. For each cycle, 1 μg/mL of human IL2Rβ or IL2Rα was captured for 60 seconds at flow rate of 10 μL/min on flow cell 2 in 1×HBST buffer on Protein A sensor chip. Two-fold serial diluted HIS tag purified engineered IL2 mutant was injected onto both reference flow cell 1 and IL2Rβ or IL2Rα captured flow cell 2 for 150 seconds at flow rate of 30 μL/min followed by washing for 300 seconds. The flow cells were then regenerated with Glycine pH 2 for 40 seconds at a flow rate of 30 μL/mins. Eight concentration points from 0 to 100 nM were assayed for each IL2Rβ agonist clone 96-well plate format. The kinetics data was analyzed with Biacore T200 evaluation software 3000. The specific binding response unit was derived from subtraction of binding to reference flow cell 1 from target flow cell 2.

Experiment [9] has as its target T4, human IL2Rα Fc fusion protein. As to the kind of experiment: ELISA, receptor-Fc coated, anti-Flag HRP; Table 9 ELISA: titration 100 nM to 0 nM, anti-Flag HRP detection. The protocol:
Briefly, 384 well plate was immobilized with human IL2Rα and IL2Rβ Fc fusion proteins at a final concentration of 2 ug/mL in 1×PBS in total volume of 25 uL per well. The plate was incubated overnight at 4 C and blocked with 80 uL of superblock per well for 1 hour. […] Each dilution was added to IL2Rα or IL2Rβ wells in parallel in duplicates. The IL2 mutant binding was detected by adding 25 uL of anti-Flag HRP diluted at 1:5000 in 1×PBST. In between each step, the plate was washed three times with 1×PBST using a plate washer. The plate was then developed with 25 uL of TMB substrate for five minutes and stopped by adding 25 ul of 2N sulfuric acid. The plate was read at OD450 nm Biotek plate reader and the EC50 was analyzed with Prism 8.1 software to generate EC50 values (FIG. 15A for IL2Rα, and FIG. 15B for IL2Rβ, summarized in Table 9).

For experiment [10], the target named is T1, human IL2Rβ. As to the kind of experiment: SPR, IL2Rβ captured on Protein A chip. The protocol:
Kinetic analysis of the receptor binding activities of IL2Rβ agonist with IL2Rα reduced activity mutations have been assessed by SPR technology with Biacore T200. The assay was run with Biacore T200 control software version 2.0. For each cycle, 1 ug/mL of human IL2Rβ was captured for 60 seconds at flow rate of 10 ul/min on flow cell 2 in 1×HBSP buffer on Protein A sensor chip. 100 nM of HIS and Flag tag purified each IL2 mutant was 2 fold serial diluted and injected onto both reference flow cell 1 and IL2Rβ captured flow cell 2 for 150 seconds at flow rate of 30 ul/mins followed by wash for 300 seconds. The flow cells were then regenerated with Glycine pH2 for 60 seconds at flow rate of 30 ul/mins. The assay was set up with 8 serial diluted concentration points in 96 well format. The kinetics data was analyzed with Biacore T200 evaluation software 3.0. The specific binding response unit was derived from subtraction of binding to reference flow cell 1 from target flow cell 2.
The source holds these as a separate data set.

The target in experiment [11] is T3, human IL2Rα. Put plainly: SPR (Biacore T200), human IL2Rα, IL2 mutant in two-fold dilutions from 100 nM (Example 13).
Experiment [12] addresses T3, human IL2Rα. The description is as above. This is another data set of the same source.
For experiment [13], the target named is T3, human IL2Rα. The description is as above. This is another data set of the same source.
Experiment [14] addresses T3, human IL2Rα. The description is as above. The source holds these as a separate data set.

B1: EP341 (ligand)
chain: APTSSSTKKTQLQLEHLLLDLQMILNGINNYKNPKLTDMLTFKFSMPKKATELKHLQCLEEELKPLEEVLNLAQSKNFHLTARDAIDNINVIVQELKGSETTFMCEYADETATIVEFLNRWITFSQSIISTLTGSHHHHHH
With B1, binding in the experiment with human IL2Rβ [1] was characterised by a dissociation constant (Kd) of 2.54 nM. Besides, the EC50 in [2] came to 64.1 nM. Moreover, the binding result in the experiment with human IL2Rα [3] was “no binding (tested: single concentration, not printed)”; in experiment [4] it was “no binding (tested: not printed)”.

B2: EP001 (ligand)
chain: APTSSSTKKTQLQLEHLLLDLQMILNGINNYKNPKLTRMLTFKFYMPKKATELKHLQCLEEELKPLEEVLNLAQSKNFHLTARDAVDNMRVIIQELKGSETTFMCEYADETATIVEFLNRWITFCQSIISTLT
notes: Produced in E. coli or mammalian cells; also called EP0001; not shown: C-terminal Flag and 6xHis tags
As for B2, the results for the dissociation constant (Kd) with human IL2Rβ [5], in the experiment with human IL2Rβ [7] and in the experiment with human IL2Rβ [8] were 1.52 nM, 1.12 nM and 0.743 nM, respectively. In addition, the dissociation rate constant (koff) came out at 0.00589 s⁻¹ in the experiment with human IL2Rβ [5], 0.00365 s⁻¹ in the experiment with human IL2Rβ [7] and 0.00417 s⁻¹ with human IL2Rβ [8]. Moreover, the kon with human IL2Rβ [5] came out at 3.86e+06 M⁻¹ s⁻¹; with human IL2Rβ [7], 3.26e+06 M⁻¹ s⁻¹; with human IL2Rβ [8], 5.61e+06 M⁻¹ s⁻¹. For the same molecule, the EC50 in experiment [6] was determined as 0.7 nM; in experiment [2], 8.1 nM; in experiment [9] it was 259 nM. Moreover, the “relative activity IL2Rβ (KD: fold) against WT IL2” value with human IL2Rβ [7] came to 3890 fold; with human IL2Rβ [8], 1360 fold.

B3: EP402 (ligand)
chain: APTSSSTKKTQLQLEHLLLDLQMILNGINNYKNPSLTRMLTGKFYMPKKATELKHLQCLEEELKPLEEVLNLAQSKNFHLGVTDSISNAIVLARELKGSETTFMCEYADETATIVEFLNRWITFCQSIISTLT
notes: not shown: His and Flag tags
In the experiment with human IL2Rβ [10], B3 came in with a dissociation constant Kd of 0.108 nM, an off-rate (koff) of 0.000397 s⁻¹ and an on-rate (kon) of 3.68e+06 M⁻¹ s⁻¹. The binding result with human IL2Rα [11] is given as “no binding (tested: 100 nM)”.

B4: EP401 (ligand)
chain: APTSSSTKKTQLQLEHLLLDLQMILNGINNYKNPSLTRMLTGKFYMPKKATELKHLQCLEEELKPLEEVLNLAQSKNFHLTARDAVDNMRVIIQELKGSETTFMCEYADETATIVEFLNRWITFCQSIISTLT
notes: not shown: His and Flag tags
Turning to B4, in the experiment with human IL2Rβ [10], the dissociation constant Kd turned out to be 0.855 nM, the off-rate constant (koff) was 0.00616 s⁻¹ and the kon came to 7.21e+06 M⁻¹ s⁻¹. For the same molecule, the binding result with human IL2Rα [12] is recorded as “no binding (tested: 100 nM)”.

B5: EP408 (ligand)
chain: APTSSSTKKTQLQLEHLLLDLQMILNGINNYKNPKLTDMLTFKFSMPKKATELKHLQCLEEELKPLEEVLNLAQSKNFHLGVTDSISNAIVLARELKGSETTFMCEYADETATIVEFLNRWITFCQSIISTLT
notes: not shown: His and Flag tags
In the case of B5, in the experiment with human IL2Rβ [10], the Kd is 0.233 nM, the koff was 0.000598 s⁻¹ and the kon was 2.56e+06 M⁻¹ s⁻¹. In addition, in the experiment with human IL2Rα [13], the binding result is reported as “no binding (tested: 100 nM)”.

B6: EP407 (ligand)
chain: APTSSSTKKTQLQLEHLLLDLQMILNGINNYKNPKLTDMLTFKFSMPKKATELKHLQCLEEELKPLEEVLNLAQSKNFHLTARDAVDNMRVIIQELKGSETTFMCEYADETATIVEFLNRWITFCQSIISTLT
notes: not shown: His and Flag tags
Regarding B6, in the experiment with human IL2Rβ [10], the equilibrium dissociation constant (Kd) is 0.611 nM, the off-rate constant (koff) came to 0.00509 s⁻¹ and the kon is 8.34e+06 M⁻¹ s⁻¹. The binding result with human IL2Rα [14] is listed as “no binding (tested: 100 nM)”.
